# B1: Flagellar biosynthesis protein FlhA (Salmonella typhimurium), P40729 (parent)
# chain: MANLVAMLRLPSNLKSTQWQILAGPILILLILSMMVLPLPAFILDLLFTFNIALSIMVLLVAMFTQRTLDFAAFPTILLFTTLLRLALNVASTRIILMEGHTGAAAAGKVVEAFGHFLVGGNFAIGIVVFIILVIINFMVITKGAGRIAEVGARFVLDGMPGKQMAIDADLNAGLIGEDEAKKRRSEVTQEADFYGSMDGASKFVRGDAIAGILIMVINVVGGLLVGVLQHGMSIGSAAESYTLLTIGDGLVAQIPALVISTAAGVIVTRVSTDQDVGEQMVGQLFSNPRVMLLAAAVLGLLGMVPGMPNLVFLLFTAALLGLAWWLRGREEKAPEEPQPVKMPENNSVVEATWNDVQLEDSLGMEVGYRLIPMVDFQQDGELLGRIRSIRKKFAQDMGFLPPVVHIRDNMDLQPARYRILMKGVEIGSGDAYPGRWLAINPGTAAGTLPGEKTVDPAFGLDAIWIESALKEQAQIQGFTVVEASTVVATHLNHLIGQFSAELFGRQEAQQLLDRVSQEMPKLTEDLVPGVVTLTTLHKVLQNLLAEKVPIRDMRTILETLAEHAPLQSDPHELTAVVRVALGRAITQQWFPGNEEVQVIGLDTALERLLLQALQGGGGLEPGLADRLLAQTQEALSRQEMLGAPPVLLVNHALRPLLSRFLRRSLPQLVVLSNLELSDNRHIRMTATIGGK
# partner: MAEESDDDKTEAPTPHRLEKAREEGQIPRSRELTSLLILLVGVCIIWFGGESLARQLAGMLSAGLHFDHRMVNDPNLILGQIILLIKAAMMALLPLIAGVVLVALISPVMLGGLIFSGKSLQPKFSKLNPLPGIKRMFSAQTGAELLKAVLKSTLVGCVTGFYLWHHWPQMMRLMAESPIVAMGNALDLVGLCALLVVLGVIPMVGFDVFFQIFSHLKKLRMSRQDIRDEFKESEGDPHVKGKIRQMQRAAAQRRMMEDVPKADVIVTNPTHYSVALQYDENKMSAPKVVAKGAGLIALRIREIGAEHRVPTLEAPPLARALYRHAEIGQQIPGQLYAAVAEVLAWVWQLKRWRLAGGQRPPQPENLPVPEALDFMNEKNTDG
# B2: Flagellar biosynthesis protein FlhA (Salmonella typhimurium), P40729 (parent)
# chain: B1 chain
# Variants of: B1
# Settings: with flhb_salty flhB
row,Variant,effect of a mutation on the interaction
1,G368C,increasing interaction strength

# Variants of: B2
# Settings: with flij_salty fliJ
row,Variant,effect of a mutation on the interaction
1,G368C,increasing interaction strength

# From IntAct's records for PubMed 20118266
